Experimental data reported in the DeepSol protein solubility set.

assay: soluble on expression in E. coli; label from the status in PepcDB or PDB records

Row | Sequence | soluble on expression in E. coli
1 | MFKLLKTFQIVYEQMNFSKAATCLYISQPAVSNQIKQLEEELGCSLFLRNGRQDVVPTRQAEVLYNRLLNLADDWQETLTALHQARLPKETCRIAASNTFAVYYLPQLMQHLQTQYATINFVLEMNNSEEVVEKVEKHQVDFGFIEKPLITKGATREEIIQDQLVLAGDPANQNWLVREKDSGVFHYTQQYLEESNQSPTLMTVKNNEMIVKMLELGMGQSLLSRKAITEKIPFQTLGEKYWRSFYFLTRGHLKSSLLQEVKQAIYRFYQTEMNKY | not soluble
2 | MAEYEFMYIHSLAEHYLQYVLQVPAFESAPSQACRVLQRVAFSVQKEVEKNLKSYLDDFHVESIDTARIIFNQVMEKEFEDGIINWGRIVTIFAFGGVLLKKLPQEQIALDVGAYKQVSSFVAEFIINNTGEWIRRNGGWEDGFIKKFEPKSGWLTFLQMTGQIWEMLFLLK | not soluble
3 | AQFQYPFKEVYYLETSPRAHRVILYTKTDRLEFTASLEEVFKQEPRLLQCHRSFLINPANVVHLDKKEKLLFFPNGGSCLIARYKVREVSEAINKLH | not soluble
4 | MAHHHHHHMSKADENGNELMEIEEVAVSDGGAARFAAVDVKSGEERFNVIWQDSGKLMRFDEGENQWKERGQGTAKVLQRKDNTSKYMFVFRREGVGKLAAQHYLVKGMKVTKHKQGEKILVWSAFKDFTDDEEGFPENFVMRLSSKEAADKALAEMMGAIEKSSV | soluble
5 | MIKTVVGSYPVVKGKPDSIPDKIKKFFGKYDKYEYSIKKALDDQLNVGIDILSDGQVRGDMVEIFVSNMYGFEGRRVVNRVEFVKPITLNDIKYSLKYISKKDPEKGVKGIITGACTLASSIRVENYYSDNKDENLIYDLAGALNKEALSIQNHVKMIQFDEPILSTGLYDLEVAKKAMDIITSGINVPVAMHVCGDVSKIFYKLNEFNVDILDHEFASCRKNLEILNEITKKVGFGCINTKLKSVDSVDEVKALISEGIEILKNNSKFEGSINDSVIIDPDCGMRLLPVDVAYSKLNNMVTAANEIEKDLILEHHHHHH | not soluble
6 | MGSDKIHHHHHHMPYERKIINDPVFGFINIPKGLLYDIVRHPLLQRLTRIKQVGLSSVVYPGAQHTRFQHSLGAFYLMSEAITQLTSKGNFIFDSEAEAVQAAILLHDIGHGPFSHVLEDTIVQGVSHEEISLMLMERMNKEMNGQLSLAIQIFKDEYPKRFLHQLVSGQLDMDRLDYLRRDSFYTGVTEGNIGSARIIKMLDVADDRLVIESKGIYSIENFLTARRLMYWQVYLHKTSVAYERMLISTLLRAKELASQGVELFASPALHFFLYNDINHTEFHNNPDCLENFIQLDDNDIWTALKVWSNHPDKVLSTLSLGMINRNIFKVENSAEPIGEDRIKELTLQISQQLGITLSEANYFVSTPSIEKNMYDPADDSIDIIYKDGTIKNIAEASDMLNISLLSKKVKKYYLCYQRLHR | not soluble
7 | MAVLGLQGVRGGVGTTTITAALAWSLQMLGENVLVVDACPDNLLRLSFNVDFTHRQGWARAMLDGQDWRDAGLRYTSQLDLLPFGQLSIEEQENPQHWQTRLSDICSGLQQLKASGRYQWILIDLPRDASQITHQLLSLCEHSLAIVNVDANCHIRLHQQALPDGAHILINDFRIGSQVQDDIYQLWLQSQRRLLPMLIHRDEAMAECLAAKQPVGEYRSDALAAEEILTLANWCLLNYSGLKTPVGSAS | not soluble
8 | MGSDKIHHHHHHMAGFRPKASPRLSPDAERLVADALALDASGSRMEDAYWERRLSQRLGRLLKNGSQTALDAALEHLFKHNADASDVLAEQAETLAESAMVEVDGVRYDALLVAAPILAHTRYAIPSGSLKPDLAQTLAVHLQAHVLATGTKVALSPYLYSIDQLPRTHSDTFALTHKLAAAALSGTVPKVDLRDLPETAPILADPRYLLAVVVAPHEQALFRWQEDAKEHHAERSTCLEQWRSQVQATVALLLPGCEFELLLPDAFFLSCRESDKSIRPLTVRAAVNYLSGTLDVPAGQLAAVVAAFGEEVVEEYRVGFTMRGEKDVIYGIVWPVYGREAGEVDADEKGNPLEQICEELRNAGVEDIFRHAALFDPEYCEDCGTPLYADRNGEIVHAELPEDAPTQQPLFH | not soluble
9 | TGEKTILKLKRSCLKPELRRIKAIVGLGLSGFTMAITNCTVQIMCNATLQAYGGDLYVGVMTVVNSVREVASLPVSGITQSAQPVLGFNYGAGEYGRVKKA | not soluble
10 | MRDNKELTESKLHLDEFSAYLMSIDKSDSTIKTYIEHIQAFAKWFEETNCIDFDPAVITEIDIRDMRSYLQGTRHLKETTINLRLASLKCYFSFLESEKYIKHNPARNIRKIKLQSPNIAKSLDEQTYRALRRHVYRGGNKAHIAMFEIFTRCGVRNFELINIRLTDFDISDRKGTLKIVGKLNKVRYIPLHKDVRDAINNWMEIRKNIKTEYDNLFISERKTPYTRSGIWKIFKKYCEQIGITDVTIHSFRHYFCRTLLKNGVDISVVAKLAGHSSGFVTAQVYTIPRQEELEAAIETLV | not soluble
11 | MGSDKIHHHHHHMDGHRLIQPLHARTADVGGIPVNRVMPQRGRRLIGAWCFLDHAGPATFTVGAGGMRVGSHPHIGLQTFTWMLAGEIMHHDSLGNAQRIRPGELNLMTAGRGIAHTEESILESGQLHAAQLWITLPHATRHTSPRFDHYPDLPRWSEQGTDVTLLRGDFQGREAPTHAFSPLVGLDIVSPDATQLTLPARTDFEYGVLLLEGSLTIERDRFDTNEMAYLGSGLDEITLAMEAGTRALMLGGEPLNEDILIWWNFVGHSKAEIAEAQKEWEEWEAGSDRFGDVPEFDGERIMPPPIPWKVTAN | not soluble
12 | MGSDKIHHHHHHMSDKTNLSHNVVNKEEFAGDPKPHPAAYTLVREDKGLGSTPKLPLETSYVKGLLKHDKFFQKALSNPIVAREFFEEYLPTEIKALFSPTTLTLENDSFIDPNLKESITDVLYSARINNRDCYIYILCEHQSSSDPHMAFRLFKYMLNIAEKHLISHPDSKKFPFIYPLVYSNDHKKYTAPLNLWDLFENSELVKDTWSNNYQLISLRDISDDKLKENPWLAPLQILMKYIHKPNVFDKWQEISGCLATIAASSSGIEYIKSALSYSLTKI | not soluble
13 | TTATRQEVLGLYRSIFRLARKWQATSGQMEDTIKEKQYILNEARTLFRKNKNLTDTDLIKQCIDECTARIEIGLHY | soluble
14 | GMDTNGVLYAANMTNALAKEIPESKWDIQLIPELGTLRKLFIHIVRVRDVYRDGLKTGSIKFPGRLASDEHRLLDELERSMEELVFEFKQTTFNSIKMGENYLSIMELLGTVIQHEGIHQGQYYVALKQSGINLPKQWVQDWHM | soluble
15 | MGEEKEIRIIVLEDGEHLESVIRKIEKGWIVRFKRGSSLLGKKVKVFTSICPGNSLEWSEGKDHLAVYCQVECKEAGSFRYWFKIEDSEERGSGYFLVMPELKINGKCLPLDGIACQTYLTKLLGPLSEWKERLEVAHQTGYNMIHLTPIHELGISNSSYSLSDHHSLIKTIQSQDQKFGFEDVQALVGDLERSWNILTVQDVVWNHAAKNATWLLEHPESAYNCLNSPHLRPAYVIDRVYHEFGKQIGEGVWEHRGVPPVVDNIHHVNAIEYLLRAEVLPKADLHEFYQVDLKAMVNLFEVFIKQSSGPTTNPLDGEDVEIEQDLECRRFGNTVDFERSARIFNRHRGDAKSEEERVEKCVRSFEEALNNKNLEAARESWEVILAGLAAVMGGITYERIADNGPKKGLVSPENPLTTDYFLHLEADLGWKSEEKFAYDPEKSKFLMAFNGWVMSSDPMKNFALKESQVYLRRELVCWGDSVKLNYGNKEADSPFLWQYMKEYTQQAARIFHGLRIDNAHGTPIHVAEKLLKTAREVRPDIYVFAELFTGSEHADNMFVNRLGISSLIREAQSAHDSHEQGRLVYRYGGDCVGAFKQKSARLAPKSIAHGLFLDQSHDNPSPIHTRSPFDILPTAAMLTMASCAVGSNRGYDELIRDHIHVVSEKRPYASWCRPDQVSRSQGIIEGRNLLNKLHTWLAEHGYSQVFVDQMNSDIVGITRHNPRTHETVVVVSHTSFSKNYIDWPGGLKHIPIGGVLENVIFEMKLKKVQEEWGTEDPDVLIGLKNYEMEIRENVNLDNGTMFKVHDGYIELTNFPTGSVVGFKIRPSDEATKAFNMIHNSITPEQSEFDSALSRLTYQSFPNLLFHCESEDYATIQQGGYDVPNFGKFVYCGLQGLVPVLEKIRDDNDLGHPLCQNLRDGTWICDYIVGRLAKFEKLGEVSEAIRKFFAPLDHVPYYLRPCYFELLVSYIYGKIRKEALKRMAPQISSSSALVRHLAISTLSFLGYIPGAGLAPIPTSLQIEDQYPSSLAAGLSHFAVGIWRNWGRDTFIALPGCLLSTGRFQEARQIILSFAGAIRHGLIPNLLAEGIGARYNCRDATWFWLVSIVKYVESAPNGVGILEDPVRRIYPNDDSVYGEGEVQQMLIETIYEALDKHFAGIDYRERSAGPQIDEQMRDEGFQVTAGVSRTTGFIYGGNRWNCGTWMDKMGSSERAGNKGEPATPRDGAAVELQGLAYRALKSLKNWKEQGVIQRSGVSDEWTWGFWAQKIRENFEKEFFVDKDSYAEFVNRREIIKDSVGSTLGFTDFQLRCNFGIALAVAPDLMDPKKAWKALDSAEVLLGPLGMKTLDPTDWAYNGYYNNDDDGTDKKTAKGWNYHQGPEWLFVAGYYLQARLRIGDILGGSEKQYAIRQVQERLGNAYKHIISSPWRSLPELTNADGEYCMQSCAAQAWSVGCLIEACVKLNTIEG | not soluble
16 | MRSIYLCRHGESELNLRGRIGGDSGLSARGKQYAYALANFIRSQGISSLKVWTSHMKRTIQTAEALGVPYEQWKALNEIDAGVCEEMTYEEIQEHYPEEFALRDQDKYRYRYPKGESYEDLVQRLEPVIMELERQENVLVICHQAVMRCLLAYFLDKSSDELPYLKCPLHTVLKLTPVAYGCRVESIYLNV | soluble
17 | MTTILAFDIETVPDVQGIRTLYELPSSLPDDEVVLFAQQKRRAQTGGDFMQHHLHQVVAISCCMRWGQDKVHVGTIGEMDDGEEVVIAKFFELIEKHTPQLVSWNGGGFDLPVLHYRSLIYGINAARYWDMGDGDFGDSRDFKWNNYISRYHQRHCDLMDLLALYQPRANVPLDDMAKLCGFPGKLGMDGSKVWEAFHTGRLKEIRNYCETDAANTYLMYLRFCLVSGRLDADEYEMEIKRMRNYLSAQAGEKPHWEEFVRAWE | not soluble
18 | KFGIARSGAMDEDALRMANILLGNKQDEAGIELCLKGGKYEFLDENYFVLSGAEFEAKLDNQKIKTCKVYQANKGDILELDLAKIGFRGYLCVAGGFEVKSFLNSKSSDAKMGAGVFEGRALQKDDILNTHNTFIPFNLEARECENPLFKSPKEPIIRVILGTNEDAFTQKGIETFLNTTYKVGLKSDRMAIYAESSESIEHKNSADIISDPAVFGSIQVPKSGIPIILMAGRQSTGGYTKIATVIENDLSLLAQAKLGSSFKFQSISMQEALELYKQREMK | not soluble
19 | MIPKQLSEAEAAVVLNLTVSQVRRLRHKGKLGYTPGRPPRIGEDDIEAYLRAVKRRPTLPPPTEPPTPVIEKDSYADIQRRVREKRLKLRLRSSQRSLG | not soluble
20 | AHIVYDDVRDLKAIIQALLKLVDEALFDIKPEGIQLVAIDKAHISLIKIELPKEMFKEYDVPEEFKFGFNTQYMSKLLKAAKRKEEIIIDADSPEVVKLTLSGALNRVFNVNNIEVLPPEVPEVNLEFDIKATINASGLKNAIGEIAEVADTLLISGNEEKVVVKGEGENKVEVEFSKDTGSLADIEFNKESSSAYDVEYLNDIISLTKLSDYVKVAFADQKPMQLEFNMEGGGKVTYLLAPKLS | soluble
21 | MLPPGMVAAESDFYLRRLWGLPHEDLKSEPRYLATFTVGINQKANIDACVKKFSENFTIVLFHYDGRVTEWDEFEWSKTAIHISVRKQTKWWYAKRFLHPDIVARYDYIFVWDEDLGVEHFNAEEYVKMVKKHGLEISQPGLEPNQGLTWQMTKRRGDMEVHKITEERPGWCSDPHLPPCAAYVEIMAPVFSRNAWRCVWHVIQNDLVHGWGLDFALRRCVEPAHEKIGVVDSQWVVHQSFPSLGNQGEATDGKAPWQGVRDRCKKEWTMFQSRMANAEKDYFKSLQVEGSSNSTATTI | soluble
